Source: patent publication US20250277038A1 (SHANGHAI JEMINCARE PHARMACEUTICAL, published 2025)
Changes are numbered by the printed parent chain.

B1: 1910G2HzL7H7 (antibody, V domains shown)
VH: EVQLVESGGGLVQPGGSLRLSCAASGFTFSNFWMTWVRQAPGKGLEWVASITHSGGITYYADSVKGRFTISRDDSKSTLYLQMNSLRAEDTAVYYCSRDPTEAPFDYWGQGTLVTVSS
VL: DIQMTQSPSSLSASVGDRVTITCQASQNINNYIAWYQQKPGKAPKQLIRYTSTLVSGVPSRFSGSGSGKDYTFTISSLQPEDIATYYCLQYDNVPNTFGQGTKLEIK
notes: Only the variable domains are tied to the name; Full chains are not tied to the name; also called humanized antibody 1910G2HzL7H7; 1910G2HzL7 + 1910G2HzH7
B2: 1910G2HzL2H2 (antibody, V domains shown)
VH: B1 VH with A61V, S75A, T78S
VL: B1 VL
notes: Only the variable domains are tied to the name; Captured on an AHC sensor and detected with anti-human secondary antibody; also called humanized antibody 1910G2HzL2H2; 1910G2HzL2 + 1910G2HzH2
B3: 1910G2HzL3H3 (antibody, V domains shown)
VH: B1 VH with T35S, A61V, D74N, S75A, T78S, T112V, L113M
VL: B1 VL with V58T, S77N
notes: Only the variable domains are tied to the name; Full chains are not tied to the name; also called humanized antibody 1910G2HzL3H3; 1910G2HzL3 + 1910G2HzH3
B4: 1910G2HzL9H9 (antibody, V domains shown)
VH: B1 VH with T35S, S77N
VL: B1 VL with Y71F
notes: Only the variable domains are tied to the name; Full chains are not tied to the name; also called humanized antibody 1910G2HzL9H9; 1910G2HzL9 + 1910G2HzH9
B5: 1910G2HzL4H4 (antibody, V domains shown)
VH: B1 VH with A61P, S77N
VL: B1 VL
notes: Only the variable domains are tied to the name; Full chains are not tied to the name; also called humanized antibody 1910G2HzL4H4; 1910G2HzL4 + 1910G2HzH4
B6: anti-human PD-L1 monoclonal antibody 50G2-3 (antibody, V domains shown)
VH: B1 VH with G16R, R19K, A23V, V37I, A61P, S75A, A88S, V93T, T112V, L113M
VL: DIQMTQSPPSLSASLGDQVTITCQASQNINNYIAWYQQKPGKAPRQLIRYTSTLVSGTPSRFSGSGSGKDYSFSISNVESEDIASYYCLQYDNVPNTFGAGTKLELK
notes: also called murine hybridoma clone 50G2-3

target: T1, human PD-L1 (Acro, Catalog Number: H5229) (human, UniProt Q9NZQ7 19-238); test: BLI, Octet RED96e, antibody on AHC sensor, antigen 100 nM, 1:1 fit
T1 construct: Soluble antigen in the BLI assay; also called antigen
Experimental: (2) Detection of samples on machines (Octet Data Acquisition 11.1.0.11): First, the sample was added into a 96-well plate (Greiner bio-one, 655209) with a system of 200 μL/well. Then the software parameters were set, the plate temperature was set to 30° C., and the frequency of collecting standard dynamic signals was 5.0 HZ. Next, the AHC sensor (Fortébio, Catalog Number: 18-0015) was pre-wetted with 1xPBST for 10 minutes, and then the sample was detected on the instrument. Each cycle incluedes the following steps: 1) immersing in buffer for 60 seconds; 2) detecting whether the antigen nonspecifically binding to the sensor; 3) regeneration of 10 mM glycine solution with pH 1.7; 4) immersing in the buffer for 60 seconds; 5) immobilizing the antibody on the sensor for 20 seconds; 6) immersing the sensor in the buffer for 180 seconds; 7) the antigen binding to the antibody for 180 seconds; 8) dissociating the antigen from the antibody for 10 minutes; 9) regenerating the sensor.

T1 sequence (Q9NZQ7 19-238 limits assumed): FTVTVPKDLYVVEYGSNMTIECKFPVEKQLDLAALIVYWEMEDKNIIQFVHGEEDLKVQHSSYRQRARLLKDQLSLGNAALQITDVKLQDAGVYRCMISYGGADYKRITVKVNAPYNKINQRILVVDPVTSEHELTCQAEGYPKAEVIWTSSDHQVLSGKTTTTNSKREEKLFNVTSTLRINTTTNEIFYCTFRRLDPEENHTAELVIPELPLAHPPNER

Kd [nM] | koff [s⁻¹] | kon [M⁻¹ s⁻¹] | Binder
0.302 | 0.000289 | 958000 | B1
0.243 | 0.00025 | 1.03e+06 | B2
0.452 | 0.000477 | 1.06e+06 | B3
0.214 | 0.00021 | 980000 | B4
0.16 | 0.000165 | 1.03e+06 | B5

target: T2, human PD-L1 protein on HEK293 cell (human, UniProt Q9NZQ7 19-290); test: flow cytometry screening on HEK293-PD-L1 cells
T2 construct: whole, on cells; also called HEK293-hPD-L1; HEK293-PD-L1
Experimental: Clones that specifically bind to HEK293-PD-L1 cells and can simultaneously block the binding of receptor PD-1 to HEK293-hPD-L1 cells were screened from the fusion plate by flow cytometer and subcloning was carried out by limited dilution method, and finally a monoclonal that can secrete specific antibodies was screened. Monoclonal antibodies were obtained by small-scale production and purification in serum-free medium for subsequent identification, including the detection of the binding ability of antibodies to HEK293-PD-L1, the function of blocking binding of PD-1 to HEK293-hPD-L1 cell, and the mixed lymphocyte experiment to finally obtain candidate anti-human PD-L1 monoclonal antibody 50G2-3. The sequences of the variable regions of murine hybridoma clone 50G2-3 obtained by monoclonal antibody sequencing is as follows: […]

T2 sequence (Q9NZQ7 19-290): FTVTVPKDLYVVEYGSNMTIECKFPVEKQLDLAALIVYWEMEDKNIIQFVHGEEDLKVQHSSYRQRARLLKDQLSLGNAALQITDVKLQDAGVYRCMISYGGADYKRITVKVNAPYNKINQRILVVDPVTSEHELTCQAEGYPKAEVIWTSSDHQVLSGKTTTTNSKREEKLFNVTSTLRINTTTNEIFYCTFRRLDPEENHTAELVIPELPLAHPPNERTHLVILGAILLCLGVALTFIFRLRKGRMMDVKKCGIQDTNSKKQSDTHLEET

binding result | Binder
binds | B6
